Source: a protein production outcome set (Wang et al. 2014)

assay: label from the status in PepcDB records

Sequence	protein production
MGATVPQRKALVLKASRILLSEKPLPERLQAFLEALLEGPFPIRSGKLYLRKGEGLRLVAQLGGEAGGEEVALSLEGGGRALGRLSLRLAPAASLAPEDRLALEEAAGILALALLRERAERAERVLRRAGECATQAAGEGDLLHKVCALLVEEGYALAWVGEARPTGEVVPREAAGAVGYLEGIRVRWDEAPEGQGPTGRALRSGRPQVLRSVEEDPRYAPWRERAQVFGFASSAAFPLRVEGRVWGSLNVYAPEEDAFDEEEVRLLEDLARLIGHALDRLRALERLRFLAYHDPLTGLPNRRRLEEDFRLLRGRWALCRLDLVDLYEVNEAYGREAGDALLARTSRRLQALLPREGRLYRLEGGEFLALLPGGAKEAEAFGQALGEALEAPLDLGEGRAFRVRVRAGVALFPDDANTLSELLRRADQALREAKKAGKRWTFYSLGLGEAVRERREVLAGLEKALAEGELRLYGQPIVDLATGRPAGVEVLLRWARGEEVVPASRFIPVAEEAGLIPELDLYVLRALAQMTTALPLHVNLSPQTLLDERLLLGLAPLKGRNLRLELTEHALASPGAEARLKELSCMGFPVVLDDFGQGYASLRLLVGLPFSMAKVDRGFVGGIGLDPKAEAALKAVLALSRELEIALVAEGVEREDQWAWLRSVGYSLGQGYLWGRPAPLEEVLYP	failed
MGCCYSLSSTVDPVQDHTTDASSEPRNGGGEDPPLTKFSFSALKTATNHFSPENIVSDQTSDVVFKGRLQNGGFVAIKRFNNMAWSDPKLFLEEAQRVGKLRHKRLVNLIGYCCDGDKRFLVADFMANDTLAKRLFQRKYQTMDWSIRLRVAYFVAEALDYCNTAGFASYNNLSAYKVLFDEDGDACLSCFGLMKEINNDQITTGSVNPENVIYRFGTVLVNLLSGKQIPPSHAPEMIHRKNVFKLMDPYLKGKFSIDEANVVYKLASQCLKYEGQESPNTKEIVATLETLQTRTEAPSYEVVEMTNQEKDASSSSNLSPLGEACLRMDLASIHSILVLAGYDDDKDIIELSFEEWIQEVKELQDVRRNGDRAFVEQDFKTAIACYSQFVEERSLVYPSVYARRSLSYLFCDEPEKALLDGMHAQGVFPDWPTAFYLQSVALAKLDMNTDSADTLKEAALLEVKK	failed
MGDPAPARSLDDIDLSALRDPAGIFELVEVVGNGTYGQVYKGRHVKTGQLAAIKVMDVTEDEEEEIKQEINMLKKYSHHRNIATYYGAFIKKSPPGNDDQLWLVMEFCGAGSVTDLVKNTKGNALKEDCIAYICREILRGLAHLHAHKVIHRDIKGQNVLLTENAEVKLVDFGVSAQLDRTVGRRNTFIGTPYWMAPEVIACDENPDATYDYRSDIWSLGITAIEMAEGAPPLCDMHPMRALFLIPRNPPPRLKSKKWSKKFIDFIDTCLIKTYLSRPPTEQLLKFPFIRDQPTERQVRIQLKDHIDRSRKKRGEKEETEYEYSGSEEEDDSHGEEGEPSSIMNVPGESTLRREFLRLQQENKSNSEALKQQQQLQQQQQRDPEAHIKHLLHQRQRRIEEQKEERRRVEEQQRREREQRKLQEKEQQRRLEDMQALRREEERRQAEREQEYKRKQLEEQRQSERLQRQLQQEHAYLKSLQQQQQQQQLQKQQQQQLLPGDRKPLYHYGRGMNPADKPAWAREVEERTRMNKQQNSPLAKSKPGSTGPEPPIPQASPGPPGPLSQTPPMQRPVEPQEGPHKSLVAHRVPLKPYAAPVPRSQSLQDQPTRNLAAFPASHDPDPAIPAPTATPSARGAVIRQNSDPTSEGPGPSPNPPAWVRPDNEAPPKVPQRTSSIATALNTSGAGGSRPAQAVRARPRSNSAWQIYLQRRAERGTPKPPGPPAQPPGPPNASSNPDLRRSDPGWERSDSVLPASHGHLPQAGSLERNRVGVSSKPDSSPVLSPGNKAKPDDHRSRPGRPADFVLLKERTLDEAPRPPKKAMDYSSSSEEVESSEDDEEEGEGGPAEGSRDTPGGRSDGDTDSVSTMVVHDVEEITGTQPPYGGGTMVVQRTPEEERNLLHADSNGYTNLPDVVQPSHSPTENSKGQSPPSKDGSGDYQSRGLVKAPGKSSFTMFVDLGIYQPGGSGDSIPITALVGGEGTRLDQLQYDVRKGSVVNVNPTNTRAHSETPEIRKYKKRFNSEILCAALWGVNLLVGTENGLMLLDRSGQGKVYGLIGRRRFQQMDVLEGLNLLITISGKRNKLRVYYLSWLRNKILHNDPEVEKKQGWTTVGDMEGCGHYRVVKYERIKFLVIALKSSVEVYAWAPKPYHKFMAFKSFADLPHRPLLVDLTVEEGQRLKVIYGSSAGFHAVDVDSGNSYDIYIPVHIQSQITPHAIIFLPNTDGMEMLLCYEDEGVYVNTYGRIIKDVVLQWGEMPTSVAYICSNQIMGWGEKAIEIRSVETGHLDGVFMHKRAQRLKFLCERNDKVFFASVRSGGSSQVYFMTLNRNCIMNW	failed
MGDPQVNDTLAPSARHEGDALASAVAKVKRHVLPLFVIMFIVNYLDRVNIGFVRPHLESDLGISAAAYGFGAGLFFIGYALFEVPSNMLLQKVGARLWLTRIMFTWGLVATAMAFVQNETQFYVLRFLLGVAEAGFFPGVIYYFTRWLPAAERGKAIAIFLSGSALASLISGPLAGALMQIQGLGLHGWQWMLFIEGMASVALCFFVFFWLDSKPQDAKWLSKAEQDALVATIDREQQAREAIGAVRPSAWNLLKDRQIVLFCLIYFCIQLTIYAATFWLPSIIKRMGDLSDMQVGFFNSIPWLISILAMYAFAAGSARWKFQQAWVAGALLVAATGMFMSTTGGPVFAFVAVCFAAIGFKSASSLFWPIPQGYLDARIAAAVIALINSVGNLGGFVAPTTFGLLEQQTGSIQGGLYGLAVTSVLAAIAIFFVRTRPKGAPSDDLKAPSALGQTH	failed
MGDSHDVCRQLLPRAIFGINGKVENGVRQHPVTGSIIFALGNKIGIADYKKNTQEFVAGHTNTISCLDLSKSGKYMASGQINHMGFRGYVIIWNYDQRKEIARHDLHKVSVQAICFTAQDRCVVSIGGVDDGSVIVFDMEAFSPICQTPASRAISGNALTVRPLHNNPYFFVTAGDRHLRLWSILREEKKLYVQDVLMASKTRVFYCARINKTDEFAYLGTGTGDIVKIVLNCCDRDHVSKQGSTSCILGAFGTHNPRKPTGRDCNRYVNGVRALYVLEGGRLLIGAGNGDIELVEERTDVPLINFRDYPGPTWPYLRTLKKTHVSGRISSFVRSKTDMFYICTDTNEIYGLNIKTWVLKLLRTCHTKSVYCITFPKNYSGVFATSGKECIRIWSSGRKQELLRIMVYNFNCACVRFTHDGTSIVSVWNDGIIRAFTPITGRLIYAIPNAHNKGCSALAVASSGRLIVTGGIEGQVRVWKIDPYRQDLVGVLKDHSGPITSLDINYLDTEVISACTDGSCVIWDIKRMTRKQVVTANTQFMSASYFPTGVQVITCGSDGRIIYWMVYNGALIRELTASKKSSVNCLAINETGDYFITVGSDLQVKLWDYNSGAVVGIGSEHASSVISCAYSPCMTMFVTGSTDGSLIIWDVPRDFWGRPNPPDVTKYSLPKTSSKTRMSDVPSRVNSGTNLKTTKGENIDGLLKATPKDDLCCVECPPCAKKDTKGVDPYAECGIVPDVRKC	failed
MGEEEMPVHPDLEAFIESIPWHRHLGLKVLALHPGHARLVIPFQAGFTGNAARGALHGGIIASLADSCGNAALWTHFGPDDRIATINIGVDYFRPAPLADLMAEAEVRLLGNRIGNVHVRLAPLAEPSQTVAEGRTVCYVKRMSLEHHHHHH	failed
MGEGALAPGLQLLLRACEQGDTDTARRLLEPGGEPVAGSEAGAEPAGPEAARAVEAGTPVPVDCSDEAGNSALQLAAAGGHEPLVRFLLRRGASVNSRNHYGWSALMQAARCGHASVAHLLLDHGADVNAQNRLGASVLTVASRGGHLGVVKLLLEAGATVDHRNPSGESTASGGSRDELLGITALMAAVQHGHEAVVRLLMEWGADPNHTARTVGWSPLMLAALLGKLSVVQQLVEKGANPDHLGVLEKTAFEVALDRKHRDLADYLDPLTTVRPKTDEEKRRPDIFHALKMGNFQLVKEIADEDPNHVNLVNGDGATPLMLAAVTGQLPLVQLLVEKHADMNKQDSVHGWTALMQATYHGNKEIVKYLLNQGADVTLRAKNGYTAFDLVMLLNDPDTELVRLLASVCMQVNKDRGGRPSHRPPLPHSKARQPWSIPMLPDDKGGLKSWWSRMSNRFRKLKLMQTLPRGLAANQPLPFSDEPELALDSTMRAPPQDRTNHLGPPEAAHAAKDSGPGNPRREKDDVLLTTMLRNGAPFPRLPSDKLKAVIPPFLPPSSFELWSSDRSRTCPNGKADPMKTVLPPRASRAHPVGCVGTDGAAGRPVKFPSISRSPTSPASSGNFNHSPHSSGGASGVGSMSRLGGELHNRSGGSVDSVLSQIAAQRKKAAGLCEQKPPCQQSSPVGPATGSSPPELPASLLGSGSGSSNVTSSSKKLDPGKRPPSGTSATSKSTSPTLTPSPSPKGHTAESSVSSSSSHRQSKSSGGSSSGTITDEDELTGILKKLSLEKYQPIFEEQEVDMEAFLTLTDGDLQELGIKTDGSRQQILAAISELNAGKGRERQILQETIHNFHSSFESSASNTRAPGNSPSMAGWVRPEETVSSRR	failed
MGEKPWQPLLQSFEKLSNCVQTHLSNFIGIKNTPPSSQSTIQNPIISLDSSPPIATNSSSLQKLPLKDKSTGPVTKEDLGRATWTFLHTLAAQMTILSRMYPCRECADHFKEILRSNPAQAGSQEEFSQWLCHVHNTVNRSLGKLVFPCERVDARWGKLECEQKSCDLHGTSMDF	failed
MGENYKFFNHKDCEFFPCHKTNKPEEFNCLFCYCPLYALGENCGGNFKYTDKGIKDCSSCILPHKKDNYNYIMSKFQDLVKITSKKLEHHHHHH	failed
MGESYSSGYSLVVRVIANDRSGLLRDITTILANEKVNVLGVASRSDTKQQLATIDMDIEIYNLQVLGRVLAKLNQLPDVIDARRQQGALEHHHHHH	not failed
MGEVFAGRYELVDPIGRGGVGAVWRAWDHRRRRYVAAKVLQQRDAHSLLRFVREQALRIDHPHVLAPASWAADDDQVLFTMDLVTGGSLVHLVGDYGPLPPEFVCTLLDQLLSGLAAVHGEGVVHRDIKPANLLLEATGTGRPRLRLSDFGIAMRLGEPRLTETNLVVGTPGYLAPEQMMGAEPDFPSDLFAVGLVALYLLEGAKPDAKVLVQHFAEHGTPPAPRGIPEPLWQVVATLLQPDPSARFRTATGARKALAAAVELLPEPGPDDELIEIFDQVGPLPTGFGPEGPFKRASGVDDVPTDPRRPAGTPPGVDPSPPATPPTPPPAPPWQGTPPAGPSSGLDRPSPGSPGPPPTGPDSTPASPPPGTPVTATGTPSAPGLPPASDQGWTPSTPSGPTAPPSAPSAPSAPSAPGPTRPAPHGTHSEEVPLAERPGAMSETGSFHLPPPQPTVTPTSDAAASDAAAEAAQPPAPHPAFTGGPRGLPPDRAPGRSQHPAPHGPPLTARSLAPSPARRADVPTAAYTARNPRSAPPAQHRGARRRRRPGPPARVALPVLLLALACYAVGFWALTRI	failed
MGEVFQKEAYAQELIDYYNQSTNDVLKRTASISENEKPRVLFLVYDQRKNSYWTPGGEFYQNNLITMAGGKTVSSDLPTGKAQINVEQAASWNPDVIITSAHTMEYPSTKVKEDVLTDEGWKEINAVKSGNVYAMPFDGESWDTLGSKYVLGLYWTAKTLEHHHHHH	not failed
MGFIQWCLAHLNYWTIMFLMAIESSFIPFPSEIIVPPAAWMAATGQNGLNVFLVILFATIGAGIGAAVNYILSLLLGRPIVYAFANSKLGHLCLINEEKVRYAERYFDKNGAVSTLVGRLIPAVRQLISIPAGLARMKFLPFISYTMLGAGIWNCILAAIGYNLAKVPGIETQEQLLEKVNKYSHEIGFSIMGVVVVVLLIMFYKKKRRSARKGN	failed
